Source: doi:10.1101/2022.04.18.488654, “The DNA replication initiation protein DnaD is recruited to a specific strand of the Bacillus subtilis chromosome origin” (bioRxiv, 2022)

T1: DnaD F6A (Bacillus subtilis 168CA, UniProt P39787 1-232, F6A)
T1 sequence: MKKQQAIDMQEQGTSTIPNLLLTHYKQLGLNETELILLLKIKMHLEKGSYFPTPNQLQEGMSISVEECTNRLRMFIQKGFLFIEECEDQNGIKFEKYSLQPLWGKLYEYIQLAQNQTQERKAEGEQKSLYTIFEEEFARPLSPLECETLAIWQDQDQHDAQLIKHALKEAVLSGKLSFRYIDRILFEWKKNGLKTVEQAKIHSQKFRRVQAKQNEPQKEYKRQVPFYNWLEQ

T2: DnaD L22A (Bacillus subtilis 168CA, UniProt P39787 1-232, L22A)
T2 sequence: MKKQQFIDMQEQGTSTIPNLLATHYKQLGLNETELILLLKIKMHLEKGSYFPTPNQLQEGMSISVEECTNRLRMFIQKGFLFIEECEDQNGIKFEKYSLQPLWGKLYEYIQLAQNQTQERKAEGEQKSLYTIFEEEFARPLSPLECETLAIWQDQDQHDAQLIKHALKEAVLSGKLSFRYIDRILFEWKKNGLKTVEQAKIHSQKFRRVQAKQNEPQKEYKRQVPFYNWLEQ


Columns and labels:
DnaD F6A = target: T1, DnaD F6A; assay: fluorescence polarisation; similar to WT; FP: 10 mM HEPES-KOH pH 7.5, 1 mM Mg acetate, 100 mM K glutamate, 20 C, 10 min, 1.875 nM DNA; crosslinking buffer not in material; settings: protein: recombinant; tags: His14-SUMO tag cleaved; chain copies: 2; label: fluorescein
DnaD L22A = target: T2, DnaD L22A; assay: fluorescence polarisation; FP: 10 mM HEPES-KOH pH 7.5, 1 mM Mg acetate, 100 mM K glutamate, 20 C, 10 min, 1.875 nM DNA; crosslinking buffer not in material; settings: protein: recombinant; tags: His14-SUMO tag cleaved; label: fluorescein
[1] = target: the molecule itself; assay: SEC-MALS; purified DnaD variants; 20°C; 40 mM Tris-HCl pH 8, 500 mM NaCl, 1 mM EDTA, 20 mM imidazole, 2.5% v/v glycerol
[2] = target: the molecule itself; assay: SEC; Superdex 200 Increase 10/300GL, 4°C; 40 mM Tris-HCl pH 8, 500 mM NaCl, 1 mM EDTA, 20 mM imidazole

Row | Binder | binding result (DnaD L22A) | stoichiometry N [1] | also measured
1 | TTTTTTTTTTTTTTTTTT (ssDNA) [polyT18 (oCW1088)] | no binding | – | binding result (DnaD F6A): binds
2 | DnaD (wild-type, Bacillus subtilis DNA replication initiation protein) (natural protein, UniProt P39787 1-232, looked up, DnaD, Bacillus subtilis 168CA, amplified from genomic DNA; full-length protein; Tetramer by SEC-MALS and SEC; in the cryo-EM map only a dimer was seen; also called wild-type DnaD; full length DnaD; source: E. coli BL21(DE3)-pLysS, purified (HisTrap, SUMO protease digestion, reverse HisTrap)) MKKQQFIDMQEQGTSTIPNLLLTHYKQLGLNETELILLLKIKMHLEKGSYFPTPNQLQEGMSISVEECTNRLRMFIQKGFLFIEECEDQNGIKFEKYSLQPLWGKLYEYIQLAQNQTQERKAEGEQKSLYTIFEEEFARPLSPLECETLAIWQDQDQHDAQLIKHALKEAVLSGKLSFRYIDRILFEWKKNGLKTVEQAKIHSQKFRRVQAKQNEPQKEYKRQVPFYNWLEQ | – | 4 | –
3 | DnaD^1-224 (truncation lacking the DnaB interaction region, the last eight residues) (domain or fragment, Bacillus subtilis, UniProt P39787 1-224, looked up, DnaD, Bacillus subtilis 168CA, residues 1-224 (lacks the last eight amino acid residues of the C-terminal tail); also called C-terminal truncation; source: E. coli BL21(DE3)-pLysS, purified (HisTrap, SUMO protease digestion, reverse HisTrap)) MKKQQFIDMQEQGTSTIPNLLLTHYKQLGLNETELILLLKIKMHLEKGSYFPTPNQLQEGMSISVEECTNRLRMFIQKGFLFIEECEDQNGIKFEKYSLQPLWGKLYEYIQLAQNQTQERKAEGEQKSLYTIFEEEFARPLSPLECETLAIWQDQDQHDAQLIKHALKEAVLSGKLSFRYIDRILFEWKKNGLKTVEQAKIHSQKFRRVQAKQNEPQKEYKRQV | – | – | stoichiometry N [2]: 4
4 | TTTTTTTTTTTTTTTTTTTTTTTTTTTTTTTTTTTTTTTT (ssDNA) [polyT40 (oCW837)] | no binding | – | –
5 | DnaD^1-205 (truncation lacking the entire C-terminal tail) (domain or fragment, Bacillus subtilis, UniProt P39787 1-205, looked up, DnaD, Bacillus subtilis 168CA, residues 1-205 (entire C-terminal tail removed); also called truncation of the DnaD^CTT; source: E. coli BL21(DE3)-pLysS, purified (HisTrap, SUMO protease digestion, reverse HisTrap)) MKKQQFIDMQEQGTSTIPNLLLTHYKQLGLNETELILLLKIKMHLEKGSYFPTPNQLQEGMSISVEECTNRLRMFIQKGFLFIEECEDQNGIKFEKYSLQPLWGKLYEYIQLAQNQTQERKAEGEQKSLYTIFEEEFARPLSPLECETLAIWQDQDQHDAQLIKHALKEAVLSGKLSFRYIDRILFEWKKNGLKTVEQAKIHSQK | – | 4 | –
